# Read-outs that look alike come from different tables or passages of the source.
# B1: hLL2-IgG1-Tap18Hr1 (antibody)
# heavy: not shown
# light: DIQLTQSPSSLSASVGDRVTMSCKSSQSVLYSANHKNYLAWYQQKPGKAPKLLIYWASTRESGVPSRFSGSGSGTDFTFTISSLQPEDIATYYCHQYLSSWTFGGGTKLEIKRTVAAPSVFIFPPSDEQLKSGTASVVCLLNNFYPREAKVQWKVDNALQSGNSQESVTEQDSKDSTYSLSSTLTLSKADYEKHKVYACEVTHQGLSSPVTKSFNRGEC
# modifications: Tap18Hr1 linker-drug on cysteine thiols of the partially reduced antibody (light chain with 0 or 1 drug); sites not stated; Tap18Hr1 linker-drug (monomethyl dolastatin 10) on cysteine thiols of the partially reduced antibody, conventional conjugation, DAR 2.7-3.5; sites not stated
# notes: also called Anti-hLL2-IgG1-Tap18Hr1; Anti-CD22 (hLL2)-IgG1-Tap18Hr1
# B2: hLL2-IgG4p (antibody)
# heavy: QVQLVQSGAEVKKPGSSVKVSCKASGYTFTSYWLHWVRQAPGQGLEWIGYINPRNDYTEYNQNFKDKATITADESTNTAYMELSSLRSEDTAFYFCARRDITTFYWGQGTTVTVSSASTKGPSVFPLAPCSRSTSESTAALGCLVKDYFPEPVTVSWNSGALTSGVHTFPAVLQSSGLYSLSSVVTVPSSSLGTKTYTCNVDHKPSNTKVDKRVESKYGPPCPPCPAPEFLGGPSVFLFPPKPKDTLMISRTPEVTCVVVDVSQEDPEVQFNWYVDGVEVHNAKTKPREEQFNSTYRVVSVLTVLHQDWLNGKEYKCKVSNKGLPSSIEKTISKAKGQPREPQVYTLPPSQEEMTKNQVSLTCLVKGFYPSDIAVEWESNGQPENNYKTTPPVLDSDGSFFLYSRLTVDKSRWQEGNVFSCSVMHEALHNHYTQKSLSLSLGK
# light: B1 light
# notes: also called hLL2-IgG4p Ab
# B3: hLL2-IgG1 (antibody)
# heavy: not shown
# light: B1 light
# notes: also called hLL2-IgG1 Ab; hLL2-wild type antibody
# B4: hLL2-S442C-IgG4p-Tap18Hr1 (antibody, name in EU numbering)
# heavy: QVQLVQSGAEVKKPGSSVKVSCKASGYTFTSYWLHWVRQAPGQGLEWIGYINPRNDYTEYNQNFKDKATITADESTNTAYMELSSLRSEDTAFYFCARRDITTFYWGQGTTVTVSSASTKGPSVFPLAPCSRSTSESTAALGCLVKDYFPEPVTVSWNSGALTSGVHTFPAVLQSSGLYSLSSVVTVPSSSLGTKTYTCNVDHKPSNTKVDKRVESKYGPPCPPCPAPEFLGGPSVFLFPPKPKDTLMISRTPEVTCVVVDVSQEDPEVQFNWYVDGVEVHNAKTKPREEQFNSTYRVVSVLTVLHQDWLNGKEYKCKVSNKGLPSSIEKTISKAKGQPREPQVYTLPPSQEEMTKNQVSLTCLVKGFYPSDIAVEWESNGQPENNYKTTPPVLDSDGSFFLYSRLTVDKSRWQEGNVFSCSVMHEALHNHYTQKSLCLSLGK
# light: B1 light
# modifications: Tap18Hr1 linker-drug (monomethyl dolastatin 10) on the introduced Cys 442 (EU numbering); site-specific conjugation, DAR 1.58-2.01
# notes: also called hLL2-S442C-IgG4p Tap18Hr1 conjugate
# B5: hLL2-T155C-IgG1-Tap18Hr1 (antibody)
# heavy: not shown
# light: B1 light
# modifications: Tap18Hr1 linker-drug (monomethyl dolastatin 10) on the introduced Cys 155 (EU numbering); site-specific conjugation, DAR 1.58-2.01
# notes: also called hLL2-T155C-IgG1 Tap18Hr1 conjugate
# B6: hLL2-S165C-IgG1 (antibody)
# heavy: not shown
# light: B1 light
# notes: Position is EU numbering
# B7: hLL2-S442C-IgG1-Tap18Hr1 (antibody)
# heavy: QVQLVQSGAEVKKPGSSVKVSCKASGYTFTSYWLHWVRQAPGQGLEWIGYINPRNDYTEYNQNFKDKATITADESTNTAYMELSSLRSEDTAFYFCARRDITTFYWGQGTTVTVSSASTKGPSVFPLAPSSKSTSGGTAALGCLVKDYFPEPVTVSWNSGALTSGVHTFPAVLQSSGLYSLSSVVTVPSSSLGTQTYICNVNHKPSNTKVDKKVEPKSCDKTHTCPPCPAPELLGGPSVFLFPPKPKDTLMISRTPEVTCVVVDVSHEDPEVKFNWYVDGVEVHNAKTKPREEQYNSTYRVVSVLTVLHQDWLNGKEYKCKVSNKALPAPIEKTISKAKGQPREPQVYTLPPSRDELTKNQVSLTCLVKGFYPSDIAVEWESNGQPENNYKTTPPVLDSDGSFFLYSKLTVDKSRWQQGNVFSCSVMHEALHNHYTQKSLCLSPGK
# light: B1 light
# modifications: Tap18Hr1 linker-drug (monomethyl dolastatin 10) on the introduced Cys 442 (EU numbering); site-specific conjugation, DAR 1.58-2.01
# notes: also called hLL2-S442C-IgG1 Tap18Hr1 conjugate
# B8: hLL2-T155C-IgG1 (antibody)
# heavy: not shown
# light: B1 light
# notes: Position is EU numbering
# B9: hLL2-S165C-IgG1-Tap18Hr1 (antibody)
# heavy: not shown
# light: B1 light
# modifications: Tap18Hr1 linker-drug (monomethyl dolastatin 10) on the introduced Cys 165 (EU numbering); site-specific conjugation, DAR 1.58-2.01
# notes: also called hLL2-S165C-IgG1 Tap18Hr1 conjugate
# B10: hLL2-T155C-IgG4p (antibody, name in EU numbering)
# heavy: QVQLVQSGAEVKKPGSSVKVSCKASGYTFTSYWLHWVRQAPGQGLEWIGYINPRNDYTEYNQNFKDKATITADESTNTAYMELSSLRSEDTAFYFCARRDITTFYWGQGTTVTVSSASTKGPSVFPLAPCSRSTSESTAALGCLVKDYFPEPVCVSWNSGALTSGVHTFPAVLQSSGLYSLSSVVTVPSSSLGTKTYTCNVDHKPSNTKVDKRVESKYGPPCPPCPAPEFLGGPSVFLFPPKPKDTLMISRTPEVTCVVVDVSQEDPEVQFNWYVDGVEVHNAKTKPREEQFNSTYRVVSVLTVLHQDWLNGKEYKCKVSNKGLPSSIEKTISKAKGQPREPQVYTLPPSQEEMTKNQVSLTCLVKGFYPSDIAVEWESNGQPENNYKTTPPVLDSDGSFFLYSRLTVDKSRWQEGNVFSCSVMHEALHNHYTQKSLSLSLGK
# light: B1 light
# notes: Position is EU numbering
# B11: hLL2-S442C-IgG1 (antibody)
# heavy: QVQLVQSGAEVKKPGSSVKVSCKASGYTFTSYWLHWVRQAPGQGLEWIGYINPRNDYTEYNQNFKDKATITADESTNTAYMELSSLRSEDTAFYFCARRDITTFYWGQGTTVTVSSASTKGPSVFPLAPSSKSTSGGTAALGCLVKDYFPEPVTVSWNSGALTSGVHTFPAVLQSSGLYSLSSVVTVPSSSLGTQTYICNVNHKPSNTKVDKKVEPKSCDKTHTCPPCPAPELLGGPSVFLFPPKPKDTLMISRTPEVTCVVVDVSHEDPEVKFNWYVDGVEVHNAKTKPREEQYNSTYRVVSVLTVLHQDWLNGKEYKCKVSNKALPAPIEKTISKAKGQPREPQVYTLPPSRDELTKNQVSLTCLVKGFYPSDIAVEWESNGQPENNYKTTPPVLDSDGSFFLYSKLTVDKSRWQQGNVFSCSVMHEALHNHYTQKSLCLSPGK
# light: B1 light
# notes: Position is EU numbering
# B12: hLL2-S442C-IgG4p (antibody, name in EU numbering)
# heavy: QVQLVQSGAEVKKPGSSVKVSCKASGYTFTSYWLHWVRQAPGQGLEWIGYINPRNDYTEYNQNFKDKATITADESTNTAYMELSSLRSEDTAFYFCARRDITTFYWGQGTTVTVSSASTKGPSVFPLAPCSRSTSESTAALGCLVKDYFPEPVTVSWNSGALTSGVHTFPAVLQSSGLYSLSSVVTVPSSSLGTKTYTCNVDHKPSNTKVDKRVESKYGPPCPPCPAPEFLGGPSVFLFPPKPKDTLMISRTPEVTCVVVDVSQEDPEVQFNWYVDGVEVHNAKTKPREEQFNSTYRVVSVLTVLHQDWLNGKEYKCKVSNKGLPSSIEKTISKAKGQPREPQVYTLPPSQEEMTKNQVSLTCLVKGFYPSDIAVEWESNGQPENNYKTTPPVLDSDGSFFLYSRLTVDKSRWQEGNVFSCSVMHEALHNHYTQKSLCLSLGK
# light: B1 light
# notes: Position is EU numbering
# B13: hLL2-S157C-IgG1 (antibody)
# heavy: not shown
# light: B1 light
# notes: Position is EU numbering
# B14: hLL2-T169C-IgG4p (antibody, name in EU numbering)
# heavy: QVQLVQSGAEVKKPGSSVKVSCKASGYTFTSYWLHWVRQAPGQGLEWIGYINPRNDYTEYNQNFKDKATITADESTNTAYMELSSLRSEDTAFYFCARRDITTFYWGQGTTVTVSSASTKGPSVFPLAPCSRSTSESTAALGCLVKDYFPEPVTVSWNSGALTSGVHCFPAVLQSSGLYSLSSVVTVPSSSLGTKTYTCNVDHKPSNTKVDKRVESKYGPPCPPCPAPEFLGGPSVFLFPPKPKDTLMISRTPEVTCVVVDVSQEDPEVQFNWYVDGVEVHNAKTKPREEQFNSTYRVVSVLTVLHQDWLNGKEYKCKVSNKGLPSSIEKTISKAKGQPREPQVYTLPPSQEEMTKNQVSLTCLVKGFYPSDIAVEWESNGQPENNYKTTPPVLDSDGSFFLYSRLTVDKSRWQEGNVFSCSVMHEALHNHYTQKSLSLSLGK
# light: B1 light
# notes: Position is EU numbering
# B15: hLL2-T169C-IgG4p-Tap18Hr1 (antibody, name in EU numbering)
# heavy: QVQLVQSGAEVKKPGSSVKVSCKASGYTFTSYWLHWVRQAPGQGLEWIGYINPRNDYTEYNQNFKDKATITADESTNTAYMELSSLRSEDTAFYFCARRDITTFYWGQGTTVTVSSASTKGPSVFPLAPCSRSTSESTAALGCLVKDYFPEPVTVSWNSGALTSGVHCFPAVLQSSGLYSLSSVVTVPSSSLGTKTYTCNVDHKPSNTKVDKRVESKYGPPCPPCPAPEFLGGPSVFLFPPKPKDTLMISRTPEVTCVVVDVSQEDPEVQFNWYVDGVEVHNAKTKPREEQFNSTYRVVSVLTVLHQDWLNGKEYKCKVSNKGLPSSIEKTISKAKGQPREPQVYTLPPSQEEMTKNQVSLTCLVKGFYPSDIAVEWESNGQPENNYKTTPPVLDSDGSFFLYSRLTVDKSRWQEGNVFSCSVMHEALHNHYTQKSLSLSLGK
# light: B1 light
# modifications: Tap18Hr1 linker-drug (monomethyl dolastatin 10) on the introduced Cys 169 (EU numbering); site-specific conjugation, DAR 1.58-2.01
# notes: also called hLL2-T169C-IgG4p Tap18Hr1 conjugate
# B16: hLL2-T155C-IgG4p-Tap18Hr1 (antibody, name in EU numbering)
# heavy: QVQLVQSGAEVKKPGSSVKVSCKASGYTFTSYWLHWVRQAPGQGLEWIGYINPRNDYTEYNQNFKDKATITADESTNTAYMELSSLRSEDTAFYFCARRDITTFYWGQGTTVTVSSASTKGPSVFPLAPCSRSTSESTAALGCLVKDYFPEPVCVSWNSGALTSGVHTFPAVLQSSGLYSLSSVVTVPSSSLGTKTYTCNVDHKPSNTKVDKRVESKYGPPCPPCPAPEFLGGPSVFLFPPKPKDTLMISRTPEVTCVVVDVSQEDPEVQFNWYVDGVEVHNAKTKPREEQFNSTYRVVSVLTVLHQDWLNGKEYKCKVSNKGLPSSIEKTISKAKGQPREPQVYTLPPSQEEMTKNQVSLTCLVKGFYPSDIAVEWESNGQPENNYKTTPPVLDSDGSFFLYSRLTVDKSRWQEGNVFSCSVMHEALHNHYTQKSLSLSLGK
# light: B1 light
# modifications: Tap18Hr1 linker-drug (monomethyl dolastatin 10) on the introduced Cys 155 (EU numbering); site-specific conjugation, DAR 1.58-2.01
# notes: also called hLL2-T155C-IgG4p Tap18Hr1 conjugate
# B17: hLL2-S157C-IgG1-Tap18Hr1 (antibody)
# heavy: not shown
# light: B1 light
# modifications: Tap18Hr1 linker-drug (monomethyl dolastatin 10) on the introduced Cys 157 (EU numbering); site-specific conjugation, DAR 1.58-2.01
# notes: also called hLL2-S157C-IgG1 Tap18Hr1 conjugate
# B18: hLL2-T169C-IgG1-Tap18Hr1 (antibody)
# heavy: not shown
# light: B1 light
# modifications: Tap18Hr1 linker-drug (monomethyl dolastatin 10) on the introduced Cys 169 (EU numbering); site-specific conjugation, DAR 1.58-2.01
# notes: also called hLL2-T169C-IgG1 Tap18Hr1 conjugate
# B19: hLL2-T169C-IgG1 (antibody)
# heavy: not shown
# light: B1 light
# notes: Position is EU numbering
# Key:
# human CD22 [1] = molecular target: T1, human CD22 (human, UniProt P20273 20-847); test: flow cytometry, Daudi cells, Tap18Hr1 conjugate 3.3 µg/mL
# T1 construct: Endogenous CD22 on human cell lines Daudi, Raji, Ramos, RL, REH and NALM-6; no signal peptide limits are stated; also called antigen CD22
# Description: (§1) 6×10⁴˜1×10⁵ cells were seeded per well in a v-bottomed 96-well plate and incubated with 100 μl of the unconjugated Abs or the ADCs at titrated concentrations or isotype control antibody human IgG at 10 μg/mL. After 30-60 minutes of incubation at 4° C., cells were washed once with 200 μl FACS buffer (lx PBS containing 1% FBS), stained with 100 μl of 1 μg/ml goat F(ab′)2-anti-human IgG (H+L)-RPE (Southern Biotech, Cat. No. 2043-09) in FACS buffer and then incubated at 4° C. for 30˜60 min Cells were washed once with FACS buffer and analyzed by flow cytometer (BD LSR, BD Life Sciences).
# (§2) The binding ability of hLL2-Cys variants with or without drug conjugation was evaluated in Daudi and REH cancer cells.
# human CD22 [2] = molecular target: T1, human CD22; test: flow cytometry, REH cells, Tap18Hr1 conjugate 3.3 µg/mL
# Description: as §1
# (§3) In general, the site-specific conjugated hLL2-IgG4p ADCs retained antigen reactivity of antibody.
# human CD22 [3] = molecular target: T1, human CD22; test: flow cytometry, Daudi cells, Tap18Hr1 conjugate 3.3 µg/mL; remark: listed apart in the source
# Description: as §1, §3
# human CD22 [4] = molecular target: T1, human CD22; test: flow cytometry, REH cells, Tap18Hr1 conjugate 3.3 µg/mL; remark: listed apart in the source
# Description: as §1, §2
# human CD22 [5] = molecular target: T1, human CD22; test: flow cytometry, Daudi cells, unconjugated Ab 3.3 µg/mL
# Description: as §1, §3
# human CD22 [6] = molecular target: T1, human CD22; test: flow cytometry, REH cells, unconjugated Ab 3.3 µg/mL
# Description: as §1, §3
# human CD22 [7] = molecular target: T1, human CD22; test: flow cytometry, Daudi cells, unconjugated Ab 3.3 µg/mL; remark: listed apart in the source
# Description: as §1, §2
# human CD22 [8] = molecular target: T1, human CD22; test: cell-based or functional assay
# human CD22 [9] = molecular target: T1, human CD22; test: cell-based or functional assay; remark: listed apart in the source
binder,measurement,setting,value
B1,MFI,human CD22 [1],1400
same,MFI,human CD22 [2],104
same,MFI,human CD22 [3],1400
same,MFI,human CD22 [4],104
B2,MFI,human CD22 [5],792
same,MFI,human CD22 [6],81
B3,MFI,human CD22 [5],1390
same,MFI,human CD22 [6],139
same,MFI,human CD22 [7],1440
B4,MFI,human CD22 [2],52
same,MFI,human CD22 [3],481
same,"% inhibition, WST-1 cytotoxicity, Daudi cells, 1.1 µg/mL",human CD22 [8],65.8%
same,"% inhibition, WST-1 cytotoxicity, Daudi cells, 3.3 µg/mL",human CD22 [8],70.6%
same,"% inhibition, WST-1 cytotoxicity, NALM-6 cells, 10 ug/ml",human CD22 [8],28.5%
same,"% inhibition, WST-1 cytotoxicity, REH cells, 10 ug/ml",human CD22 [8],21.3%
same,"% inhibition, WST-1 cytotoxicity, Ramos cells, 1.1 µg/mL",human CD22 [8],86.9%
same,"% inhibition, WST-1 cytotoxicity, Ramos cells, 3.3 µg/mL",human CD22 [8],88.9%
B5,MFI,human CD22 [1],1230
same,"% inhibition, WST-1 cytotoxicity, Daudi cells, 1.1 µg/mL",human CD22 [9],71%
same,"% inhibition, WST-1 cytotoxicity, Daudi cells, 3.3 µg/mL",human CD22 [9],72.6%
same,"% inhibition, WST-1 cytotoxicity, Ramos cells, 1.1 µg/mL",human CD22 [9],84.9%
same,"% inhibition, WST-1 cytotoxicity, Ramos cells, 3.3 µg/mL",human CD22 [9],88.9%
B6,MFI,human CD22 [7],1310
B7,MFI,human CD22 [1],914
same,"% inhibition, WST-1 cytotoxicity, Daudi cells, 1.1 µg/mL",human CD22 [9],77.6%
same,"% inhibition, WST-1 cytotoxicity, Daudi cells, 3.3 µg/mL",human CD22 [9],79%
same,"% inhibition, WST-1 cytotoxicity, Ramos cells, 1.1 µg/mL",human CD22 [9],92%
same,"% inhibition, WST-1 cytotoxicity, Ramos cells, 3.3 µg/mL",human CD22 [9],96%
same,MFI,human CD22 [4],87
B8,MFI,human CD22 [7],1250
B9,MFI,human CD22 [1],1230
same,"% inhibition, WST-1 cytotoxicity, Daudi cells, 1.1 µg/mL",human CD22 [9],60.5%
same,"% inhibition, WST-1 cytotoxicity, Daudi cells, 3.3 µg/mL",human CD22 [9],65.1%
same,"% inhibition, WST-1 cytotoxicity, Ramos cells, 1.1 µg/mL",human CD22 [9],72.6%
same,"% inhibition, WST-1 cytotoxicity, Ramos cells, 3.3 µg/mL",human CD22 [9],79.4%
B10,MFI,human CD22 [5],601
same,MFI,human CD22 [6],79
B11,MFI,human CD22 [7],1150
B12,MFI,human CD22 [5],681
same,MFI,human CD22 [6],70
B13,MFI,human CD22 [7],1300
B14,MFI,human CD22 [5],761
same,MFI,human CD22 [6],74
B15,MFI,human CD22 [2],60
same,MFI,human CD22 [3],625
same,"% inhibition, WST-1 cytotoxicity, Daudi cells, 1.1 µg/mL",human CD22 [8],67.2%
same,"% inhibition, WST-1 cytotoxicity, Daudi cells, 3.3 µg/mL",human CD22 [8],70.8%
same,"% inhibition, WST-1 cytotoxicity, NALM-6 cells, 10 ug/ml",human CD22 [8],68.2%
same,"% inhibition, WST-1 cytotoxicity, REH cells, 10 ug/ml",human CD22 [8],42.6%
same,"% inhibition, WST-1 cytotoxicity, Ramos cells, 1.1 µg/mL",human CD22 [8],89.6%
same,"% inhibition, WST-1 cytotoxicity, Ramos cells, 3.3 µg/mL",human CD22 [8],93.3%
B16,MFI,human CD22 [2],66
same,MFI,human CD22 [3],515
same,"% inhibition, WST-1 cytotoxicity, Daudi cells, 1.1 µg/mL",human CD22 [8],66.2%
same,"% inhibition, WST-1 cytotoxicity, Daudi cells, 3.3 µg/mL",human CD22 [8],70.2%
same,"% inhibition, WST-1 cytotoxicity, NALM-6 cells, 10 ug/ml",human CD22 [8],45.3%
same,"% inhibition, WST-1 cytotoxicity, REH cells, 10 ug/ml",human CD22 [8],22.4%
same,"% inhibition, WST-1 cytotoxicity, Ramos cells, 1.1 µg/mL",human CD22 [8],89.4%
same,"% inhibition, WST-1 cytotoxicity, Ramos cells, 3.3 µg/mL",human CD22 [8],94.9%
B17,MFI,human CD22 [1],1230
same,"% inhibition, WST-1 cytotoxicity, Daudi cells, 1.1 µg/mL",human CD22 [9],76.3%
same,"% inhibition, WST-1 cytotoxicity, Daudi cells, 3.3 µg/mL",human CD22 [9],79.4%
same,"% inhibition, WST-1 cytotoxicity, Ramos cells, 1.1 µg/mL",human CD22 [9],90.4%
same,"% inhibition, WST-1 cytotoxicity, Ramos cells, 3.3 µg/mL",human CD22 [9],93.9%
same,MFI,human CD22 [4],94
B18,MFI,human CD22 [1],1370
same,"% inhibition, WST-1 cytotoxicity, Daudi cells, 1.1 µg/mL",human CD22 [9],69.8%
same,"% inhibition, WST-1 cytotoxicity, Daudi cells, 3.3 µg/mL",human CD22 [9],73.6%
same,"% inhibition, WST-1 cytotoxicity, Ramos cells, 1.1 µg/mL",human CD22 [9],85.7%
same,"% inhibition, WST-1 cytotoxicity, Ramos cells, 3.3 µg/mL",human CD22 [9],91.4%
B19,MFI,human CD22 [7],1300
